Measurements: article PMC9293771

Molecular target: N-terminally truncated N-terminally His6-tagged human aspartate/asparagine-β-hydroxylase (His6-AspH315–758) (human) (UniProt Q12797)
UniProt Q12797, sequence (Q12797 315-758): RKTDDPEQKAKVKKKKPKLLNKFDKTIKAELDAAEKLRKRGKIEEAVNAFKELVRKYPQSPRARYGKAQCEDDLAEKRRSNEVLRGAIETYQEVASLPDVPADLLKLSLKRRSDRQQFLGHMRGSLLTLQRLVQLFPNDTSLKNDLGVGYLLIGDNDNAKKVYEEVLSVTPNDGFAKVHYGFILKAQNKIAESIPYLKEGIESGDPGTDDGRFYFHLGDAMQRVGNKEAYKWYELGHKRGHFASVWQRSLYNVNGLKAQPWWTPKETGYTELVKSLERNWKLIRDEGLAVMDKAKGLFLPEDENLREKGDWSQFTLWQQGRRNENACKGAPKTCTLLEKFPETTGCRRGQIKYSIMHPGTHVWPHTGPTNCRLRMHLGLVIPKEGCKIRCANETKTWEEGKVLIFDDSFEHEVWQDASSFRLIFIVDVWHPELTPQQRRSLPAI

| Km of AspH for the peptide substrate, steady-state kinetics of hydroxylation by SPE-MS (0.1 μM His6-AspH315–758, 50 mM Hepes, pH 7.5, 20 °C) [μM] | Substance |
| --- | --- |
| 47 | hLYPD6B-CP65–83, thioether-bridged cyclic peptide derived from the LU domain of human LYPD6B (from UniProt Q8NI32 65-83) |
| 7.9 | hHMCN1-CP5164–5182, thioether-bridged cyclic peptide derived from EGFD2 of human hemicentin-1 (from UniProt Q96RW7 5164-5182) |
